Test system: primer DG48 annealed to M13 mp18 template
Experiment: limiting template, primer extension competition assay (ddNTP incorporation assay)
Assay type: biochemical
Conditions: ratio of concentrations for 50% inhibition by Zowie-ddCTP vs. ddCTP
Description: The ability of the enzymes of this invention to efficiently incorporate nucleotides labeled with fluorescein family dyes is measured by ddNTP incorporation assays. One such assay is a primer extension competition assay conducted under conditions of limiting template. In this assay, a primer DG48 (5′-[…]), (SEQ ID NO: 11), bound to M13 mp18 template (Innis et al., 1988, Proc. Natl. Acad. Sci. USA 85:9436) is extended in the presence of [α-^33P]dCTP and excess enzyme with various levels of a fluorescently labeled ddNTP, Zowie-ddCTP. Because the incorporation of a ddCTP residue terminates the extension reaction, the more readily a DNA polymerase incorporates a ddCTP into an extended primer, the less [α-^33P]dCTP can be incorporated. Thus, as the efficiency of fluorescently labeled ddCTP incorporation increases, the extent of inhibition of DNA synthesis is increased. The reactions were also performed with various levels of an unlabeled ddCTP. […]
The relative abilities of G46D F667Y Taq, G46D F667Y E681K Taq and F730Y Tma30 DNA polymerases to incorporate a fluorescein dye family-labeled ddCTP were compared by use of a limiting template, primer extension competition assay. […] In this competition assay, because the incorporation of a ddCTP terminates the extension reaction, the more readily the polymerase incorporates a ddCTP into an extended primer, the less [α-^33P]dCTP can be incorporated. […]

B1: G46D F667Y E681K Taq: thermostable Taq DNA polymerase with G46D, F667Y and E681K mutations, encoded by plasmid pLK113 (protein, UniProt P19821 1-832, looked up, variant G46D F667Y E681K)
DNA polymerase I, thermostable: MRGMLPLFEPKGRVLLVDGHHLAYRTFHALKGLTTSRGEPVQAVYDFAKSLLKALKEDGDAVIVVFDAKAPSFRHEAYGGYKAGRAPTPEDFPRQLALIKELVDLLGLARLEVPGYEADDVLASLAKKAEKEGYEVRILTADKDLYQLLSDRIHVLHPEGYLITPAWLWEKYGLRPDQWADYRALTGDESDNLPGVKGIGEKTARKLLEEWGSLEALLKNLDRLKPAIREKILAHMDDLKLSWDLAKVRTDLPLEVDFAKRREPDRERLRAFLERLEFGSLLHEFGLLESPKALEEAPWPPPEGAFVGFVLSRKEPMWADLLALAAARGGRVHRAPEPYKALRDLKEARGLLAKDLSVLALREGLGLPPGDDPMLLAYLLDPSNTTPEGVARRYGGEWTEEAGERAALSERLFANLWGRLEGEERLLWLYREVERPLSAVLAHMEATGVRLDVAYLRALSLEVAEEIARLEAEVFRLAGHPFNLNSRDQLERVLFDELGLPAIGKTEKTGKRSTSAAVLEALREAHPIVEKILQYRELTKLKSTYIDPLPDLIHPRTGRLHTRFNQTATATGRLSSSDPNLQNIPVRTPLGQRIRRAFIAEEGWLLVALDYSQIELRVLAHLSGDENLIRVFQEGRDIHTETASWMFGVPREAVDPLMRRAAKTINYGVLYGMSAHRLSQKLAIPYEEAQAFIERYFQSFPKVRAWIEKTLEEGRRRGYVETLFGRRRYVPDLEARVKSVREAAERMAFNMPVQGTAADLMKLAMVKLFPRLEEMGARMLLQVHDELVLEAPKERAEAVARLAKEVMEGVYPLAVPLEVEVGIGEDWLSAKE
Zowie-ddCTP/ddCTP (ratio of concentrations for 50% inhibition): 1.2

— patent publication US7598032B2, “Thermostable DNA polymerases incorporating nucleoside triphosphates labeled with fluorescent dyes” (Roche Molecular Systems, priority 1997, dated 2009)
